Our source for the Kd values is paper PMC13043311, “2′-O-Methyl-guanosine RNA fragments antagonize TLR7 and TLR8 to limit autoimmunity”.

Conditions in all cases: protein: recombinant; chain copies: 2; single-stranded
The target of one data set is T1, TLR7 F507S (Macaca mulatta, UniProt B3Y653 27-839, F507S).
T1 sequence: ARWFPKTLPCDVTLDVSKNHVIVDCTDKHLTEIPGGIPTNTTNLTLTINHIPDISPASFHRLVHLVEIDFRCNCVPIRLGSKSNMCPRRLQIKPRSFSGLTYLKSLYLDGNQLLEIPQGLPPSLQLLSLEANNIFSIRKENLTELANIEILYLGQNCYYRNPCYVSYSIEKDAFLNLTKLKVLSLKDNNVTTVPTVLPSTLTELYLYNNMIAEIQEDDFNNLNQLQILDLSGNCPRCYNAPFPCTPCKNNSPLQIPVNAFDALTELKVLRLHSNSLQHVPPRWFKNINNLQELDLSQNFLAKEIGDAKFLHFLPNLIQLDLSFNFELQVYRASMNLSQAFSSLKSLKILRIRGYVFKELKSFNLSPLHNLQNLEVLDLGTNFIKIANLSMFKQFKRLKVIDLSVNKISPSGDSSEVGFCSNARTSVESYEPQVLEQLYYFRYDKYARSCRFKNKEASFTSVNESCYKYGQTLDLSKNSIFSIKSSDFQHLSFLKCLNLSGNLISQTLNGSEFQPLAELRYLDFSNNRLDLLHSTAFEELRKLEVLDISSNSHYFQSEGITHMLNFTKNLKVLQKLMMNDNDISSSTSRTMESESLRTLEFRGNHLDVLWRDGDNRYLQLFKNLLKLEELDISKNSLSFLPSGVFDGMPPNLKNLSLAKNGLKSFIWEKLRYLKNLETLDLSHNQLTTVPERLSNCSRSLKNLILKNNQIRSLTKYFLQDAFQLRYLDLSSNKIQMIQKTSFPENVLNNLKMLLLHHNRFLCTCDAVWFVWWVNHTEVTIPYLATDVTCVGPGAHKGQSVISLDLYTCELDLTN
Description: SPR; mean computed from runs 36±1, 46±2, 42±6; SPR with recombinant TLR7/TLR8; buffer, pH and temperature not in the material. A general note: SPR reads the build-up and loss of mass on a sensor chip optically.

The target of a further data set is T2, TLR7 P435S (Macaca mulatta, UniProt B3Y653 27-839, P435S).
T2 sequence: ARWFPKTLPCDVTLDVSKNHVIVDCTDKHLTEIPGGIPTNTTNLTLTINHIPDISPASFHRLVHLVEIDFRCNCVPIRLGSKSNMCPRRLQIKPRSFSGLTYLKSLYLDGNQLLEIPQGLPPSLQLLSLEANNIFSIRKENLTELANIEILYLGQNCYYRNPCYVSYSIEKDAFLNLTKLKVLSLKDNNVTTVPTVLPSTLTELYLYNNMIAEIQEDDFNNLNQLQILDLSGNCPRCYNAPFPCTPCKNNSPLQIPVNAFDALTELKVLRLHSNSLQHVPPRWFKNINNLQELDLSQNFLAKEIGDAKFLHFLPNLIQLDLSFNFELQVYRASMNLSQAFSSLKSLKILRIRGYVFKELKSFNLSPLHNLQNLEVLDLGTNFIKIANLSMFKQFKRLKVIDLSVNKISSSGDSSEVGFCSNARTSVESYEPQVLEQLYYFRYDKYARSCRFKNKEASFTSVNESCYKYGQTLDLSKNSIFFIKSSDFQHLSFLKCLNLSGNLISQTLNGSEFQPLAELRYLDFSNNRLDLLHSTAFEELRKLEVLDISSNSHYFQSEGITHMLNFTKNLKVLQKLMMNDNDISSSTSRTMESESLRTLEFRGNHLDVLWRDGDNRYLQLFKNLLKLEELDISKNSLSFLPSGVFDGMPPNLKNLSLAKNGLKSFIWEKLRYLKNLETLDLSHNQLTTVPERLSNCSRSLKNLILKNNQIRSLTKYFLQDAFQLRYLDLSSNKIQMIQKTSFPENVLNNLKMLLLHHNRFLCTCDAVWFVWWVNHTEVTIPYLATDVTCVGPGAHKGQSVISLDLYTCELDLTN
Nature of the data set: SPR; mean computed from runs 5±0.6, 6±0.7, 6±0.7; SPR with recombinant TLR7/TLR8; buffer, pH and temperature not in the material.

In another data set the target is T3, TLR7 F507L (Macaca mulatta, UniProt B3Y653 27-839, F507L).
T3 sequence: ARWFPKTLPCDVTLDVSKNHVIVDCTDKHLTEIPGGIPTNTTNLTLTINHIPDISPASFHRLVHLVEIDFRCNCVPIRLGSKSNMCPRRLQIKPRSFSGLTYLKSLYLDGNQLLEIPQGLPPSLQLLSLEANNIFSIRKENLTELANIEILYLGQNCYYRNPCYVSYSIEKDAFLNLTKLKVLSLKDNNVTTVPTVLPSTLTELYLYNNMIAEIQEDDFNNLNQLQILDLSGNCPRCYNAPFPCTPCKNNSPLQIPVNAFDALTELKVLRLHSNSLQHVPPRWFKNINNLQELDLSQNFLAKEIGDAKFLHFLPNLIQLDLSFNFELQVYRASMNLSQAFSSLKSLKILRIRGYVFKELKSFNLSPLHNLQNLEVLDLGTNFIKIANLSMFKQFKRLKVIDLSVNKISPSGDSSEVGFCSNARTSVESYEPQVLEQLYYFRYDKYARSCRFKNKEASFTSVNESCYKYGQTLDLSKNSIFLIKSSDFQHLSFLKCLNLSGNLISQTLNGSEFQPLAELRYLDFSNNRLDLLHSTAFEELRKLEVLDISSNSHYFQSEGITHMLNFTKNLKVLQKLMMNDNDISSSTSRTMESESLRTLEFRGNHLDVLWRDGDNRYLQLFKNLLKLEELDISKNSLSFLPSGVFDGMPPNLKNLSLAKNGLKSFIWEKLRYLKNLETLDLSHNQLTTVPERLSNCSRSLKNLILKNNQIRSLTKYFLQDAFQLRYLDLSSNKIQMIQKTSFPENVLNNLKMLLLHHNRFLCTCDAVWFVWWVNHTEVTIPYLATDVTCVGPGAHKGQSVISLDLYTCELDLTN
Nature of the data set: SPR; mean computed from runs 16±2, 18±2, 20±6; SPR with recombinant TLR7/TLR8; buffer, pH and temperature not in the material.

The term Kd denotes the constant that tells how readily two partners part at equilibrium.

For the molecule GUC (XNA, 2'-OMe G1, RNA U2 C3; phosphorothioate linkages) [mGrUrC PS], the Kd in the data set with TLR7 F507S amounted to 41.3 µM; with TLR7 P435S, 5.67 µM; with TLR7 F507L, 18 µM.
